Residue numbers refer to the chain shown, from its start. Values belong to the binder of their own block, whether it stands above or below them.
Assays:
human CD20 [1] = target: T1, human CD20 (human, UniProt P11836 1-297); experiment: cell-based or functional assay
T1 sequence (looked up): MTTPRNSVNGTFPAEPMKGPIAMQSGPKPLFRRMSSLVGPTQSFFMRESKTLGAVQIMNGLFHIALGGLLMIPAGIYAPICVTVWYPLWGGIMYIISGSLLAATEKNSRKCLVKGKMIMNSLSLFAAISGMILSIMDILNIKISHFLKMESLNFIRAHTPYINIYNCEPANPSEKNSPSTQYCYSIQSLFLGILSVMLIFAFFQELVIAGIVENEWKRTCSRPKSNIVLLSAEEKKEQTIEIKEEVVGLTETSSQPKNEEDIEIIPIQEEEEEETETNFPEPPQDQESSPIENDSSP

human CD20 [2] = target: T1, human CD20; experiment: FACS KD on SB cells expressing CD20 (GMF against mAb concentration, nonlinear fit)
Description: The affinity of purified antibodies against CD20 (mAbs 1.1.2, 1.2.1, 2.1.2, 1.3.3, 1.5.3, 1.10.3.1, 1.13.2), Rituximab (positive control), and B1 was determined by FACS. Briefly, SB cells expressing CD20 were resuspended in FACS buffer (2% FBS, 0.05% NaN₃) at a concentration of approximately 5 million cells/mL. HSB cells were also resuspended in FACS buffer at a concentration of approximately 9 million cells/mL. Cells were kept on ice. Purified antibodies were serially diluted in filtered 1×PBS (2×) across 11 wells in 96-well plates. The twelfth well in each row contained buffer only. 1×PBS and cells were added to each mAb well such that the final volume was […] and each well contained approximately 375,000 cells. The final molecular concentration ranges for the mAbs were as follows:
Plates were placed on a plate shaker for 3 hours at 4° C., then spun and washed 3× with PBS. 200 μL of 145 nM Cy5 goat α-human polyclonal antibody was added to each well, and 200 μL of 192 nM Cy5 goat α-mouse polyclonal antibody was added to the cells complexed with B1 antibody. Plates were then incubated for 40 minutes at 4° C., then spun and washed 3× with PBS.
The Geometric Mean Fluorescence (GMF) of 10,000 cells for each mAb concentration was determined using a FACSCalibur instrument. No significant nonspecific binding (no significant signal) was apparent from the HSB cells. In each row containing the SB cells, the signal from the twelfth well (containing buffer only) was subtracted from the signal from the first 11 wells. A nonlinear plot of GMF as a function of molecular mAb concentration was fit using Scientist software using the equation: […]

% Lysis Daudi 0.001 µg/ml ADCC (human CD20 [1]): 19%
% Lysis Daudi 1 µg/ml ADCC (human CD20 [1]): 74%
% Lysis Raji 0.001 µg/ml ADCC (human CD20 [1]): 5%
% Lysis Raji 1 µg/ml ADCC (human CD20 [1]): 17%
% Lysis Ramos 0.001 µg/ml ADCC (human CD20 [1]): 3%
% Lysis Ramos 1 µg/ml ADCC (human CD20 [1]): 40%
EC50 µg/ml Daudi CDC (human CD20 [1]): > 10 µg/mL
EC50 µg/ml Raji CDC (human CD20 [1]): 52.9 µg/mL
EC50 µg/ml Ramos Apoptosis Cell Titer Glo (human CD20 [1]): 0.528 µg/mL
EC50 µg/ml Ramos CDC (human CD20 [1]): > 10 µg/mL
B1: mAb 1.9.2 (antibody, human IgG1, V domains shown)
VH: EVQLVQSGAEVKKPGESLKISCKGSGYSFTSYWIGWVRQMPGKGLEWMGIIYPGDSDTRYSPSFQGQVTISADKSISTAYLQWSSLKASDTAMYYCARHGDFWSGYYSFDYWGQGTLVTVSS
VL: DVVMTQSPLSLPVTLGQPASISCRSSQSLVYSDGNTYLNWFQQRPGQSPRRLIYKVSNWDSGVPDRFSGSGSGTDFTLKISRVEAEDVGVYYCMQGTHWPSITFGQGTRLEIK

Kd (human CD20 [2]): 11.1 nM
% Lysis Daudi 0.001 µg/ml ADCC (human CD20 [1]): 77%
% Lysis Daudi 1 µg/ml ADCC (human CD20 [1]): 96%
% Lysis Raji 0.001 µg/ml ADCC (human CD20 [1]): 12%
% Lysis Raji 1 µg/ml ADCC (human CD20 [1]): 53%
% Lysis Ramos 0.001 µg/ml ADCC (human CD20 [1]): 15%
% Lysis Ramos 1 µg/ml ADCC (human CD20 [1]): 84%
EC50 µg/ml Daudi CDC (human CD20 [1]): 0.8 µg/mL
EC50 µg/ml Raji CDC (human CD20 [1]): 0.4 µg/mL
EC50 µg/ml Ramos Apoptosis Alamar Blue (human CD20 [1]): 0.0481 µg/mL
EC50 µg/ml Ramos Apoptosis Annexin V (human CD20 [1]): 0.518 µg/mL
EC50 µg/ml Ramos Apoptosis Cell Titer Glo (human CD20 [1]): 0.041 µg/mL
EC50 µg/ml Ramos Apoptosis WST-1 (human CD20 [1]): 0.0055 µg/mL
EC50 µg/ml Ramos CDC (human CD20 [1]): 0.24 µg/mL
B2: mAb 1.1.2 (ATCC Accession Number PTA-7329) (antibody, human IgG1, V domains shown)
VH: B1 VH with S61R, S77T, G100P, D101S, F102Y, W103G, Y106S, Y107P, S108N
VL: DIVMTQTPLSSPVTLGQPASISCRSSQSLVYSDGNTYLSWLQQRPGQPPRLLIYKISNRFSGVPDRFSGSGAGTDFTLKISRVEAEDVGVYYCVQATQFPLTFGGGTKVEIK
notes: also called 50-001H1_1_2

% Lysis Daudi 0.001 µg/ml ADCC (human CD20 [1]): 60%
% Lysis Daudi 1 µg/ml ADCC (human CD20 [1]): 79%
% Lysis Raji 0.001 µg/ml ADCC (human CD20 [1]): 7%
% Lysis Raji 1 µg/ml ADCC (human CD20 [1]): 44%
% Lysis Ramos 0.001 µg/ml ADCC (human CD20 [1]): 12%
% Lysis Ramos 1 µg/ml ADCC (human CD20 [1]): 65%
EC50 µg/ml Daudi CDC (human CD20 [1]): 1.66 µg/mL
EC50 µg/ml Raji CDC (human CD20 [1]): 0.5 µg/mL
EC50 µg/ml Ramos Apoptosis Alamar Blue (human CD20 [1]): 0.0207 µg/mL
EC50 µg/ml Ramos Apoptosis Annexin V (human CD20 [1]): 0.373 µg/mL
EC50 µg/ml Ramos Apoptosis Cell Titer Glo (human CD20 [1]): 0.139 µg/mL
EC50 µg/ml Ramos Apoptosis WST-1 (human CD20 [1]): 0.00076 µg/mL
EC50 µg/ml Ramos CDC (human CD20 [1]): 1.03 µg/mL
B3: mAb 2.2.2 (antibody, human IgG1, V domains shown)
VH: B1 VH with R59K, H99Q, Y106N, Y107G, S108G, F109M, Y111V, L117T
VL: DIVMTQTPLSSPVTLGQPASISCRSSQSLVSRDGNTYLSWLQQRPGQPPRLLIYKISNRFSGVPDRFSGSGAGTDFTLKISRVEVEDVGVYYCMQATQFPITFGQGTRLEIK

Kd (human CD20 [2]): 3.8 nM
% Lysis Daudi 0.001 µg/ml ADCC (human CD20 [1]): 52%
% Lysis Daudi 1 µg/ml ADCC (human CD20 [1]): 70%
% Lysis Raji 0.001 µg/ml ADCC (human CD20 [1]): 7%
% Lysis Raji 1 µg/ml ADCC (human CD20 [1]): 17%
% Lysis Ramos 0.001 µg/ml ADCC (human CD20 [1]): 8%
% Lysis Ramos 1 µg/ml ADCC (human CD20 [1]): 23%
EC50 µg/ml Daudi CDC (human CD20 [1]): 0.51 µg/mL
EC50 µg/ml Raji CDC (human CD20 [1]): 0.3 µg/mL
EC50 µg/ml Ramos Apoptosis Alamar Blue (human CD20 [1]): 0.0329 µg/mL
EC50 µg/ml Ramos Apoptosis Annexin V (human CD20 [1]): 0.163 µg/mL
EC50 µg/ml Ramos Apoptosis Cell Titer Glo (human CD20 [1]): 0.0135 µg/mL
EC50 µg/ml Ramos Apoptosis WST-1 (human CD20 [1]): 0.0067 µg/mL
EC50 µg/ml Ramos CDC (human CD20 [1]): 0.16 µg/mL
B4: mAb 2.1.2 (ATCC Accession Number PTA-7328) (antibody, human IgG1, V domains shown)
VH: B1 VH with H99Q, Y107G, S108G, F109M, Y111V, L117T
VL: B3 VL with L9H, D65N, E84K, V85A, I101L
notes: Human IgG1 kappa; also called 2.1.1; 50-001H2_1_1

% Lysis Daudi 0.001 µg/ml ADCC (human CD20 [1]): 62%
% Lysis Daudi 1 µg/ml ADCC (human CD20 [1]): 72%
% Lysis Raji 0.001 µg/ml ADCC (human CD20 [1]): 7%
% Lysis Raji 1 µg/ml ADCC (human CD20 [1]): 37%
% Lysis Ramos 0.001 µg/ml ADCC (human CD20 [1]): 4%
% Lysis Ramos 1 µg/ml ADCC (human CD20 [1]): 52%
EC50 µg/ml Daudi CDC (human CD20 [1]): ~10 µg/mL
EC50 µg/ml Raji CDC (human CD20 [1]): 1.3 µg/mL
EC50 µg/ml Ramos Apoptosis Alamar Blue (human CD20 [1]): 0.11 µg/mL
EC50 µg/ml Ramos Apoptosis Annexin V (human CD20 [1]): 2.86 µg/mL
EC50 µg/ml Ramos Apoptosis Cell Titer Glo (human CD20 [1]): 0.342 µg/mL
EC50 µg/ml Ramos Apoptosis WST-1 (human CD20 [1]): 0.0514 µg/mL
EC50 µg/ml Ramos CDC (human CD20 [1]): 13.1 µg/mL
B5: mAb 1.4.3 (antibody, human IgG1, V domains shown)
VH: B1 VH with S77T, G100P, D101S, F102Y, W103G, Y106S, Y107P, S108N
VL: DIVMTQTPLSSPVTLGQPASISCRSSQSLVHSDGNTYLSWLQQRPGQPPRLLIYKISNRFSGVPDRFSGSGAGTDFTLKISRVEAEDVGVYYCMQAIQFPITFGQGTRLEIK

Kd (human CD20 [2]): 9.1 nM
% Lysis Daudi 0.001 µg/ml ADCC (human CD20 [1]): 66%
% Lysis Daudi 1 µg/ml ADCC (human CD20 [1]): 79%
% Lysis Raji 0.001 µg/ml ADCC (human CD20 [1]): 10%
% Lysis Raji 1 µg/ml ADCC (human CD20 [1]): 53%
% Lysis Ramos 0.001 µg/ml ADCC (human CD20 [1]): 8%
% Lysis Ramos 1 µg/ml ADCC (human CD20 [1]): 60%
EC50 µg/ml Daudi CDC (human CD20 [1]): ~10 µg/mL
EC50 µg/ml Raji CDC (human CD20 [1]): 0.53 µg/mL
EC50 µg/ml Ramos Apoptosis Alamar Blue (human CD20 [1]): 0.08 µg/mL
EC50 µg/ml Ramos Apoptosis Annexin V (human CD20 [1]): 1.03 µg/mL
EC50 µg/ml Ramos Apoptosis Cell Titer Glo (human CD20 [1]): 0.191 µg/mL
EC50 µg/ml Ramos Apoptosis WST-1 (human CD20 [1]): 0.037 µg/mL
EC50 µg/ml Ramos CDC (human CD20 [1]): 2.56 µg/mL
B6: mAb 1.5.3 (ATCC Accession Number PTA-7330) (antibody, human IgG1, V domains shown)
VH: B1 VH with S77T, G100P, D101S, F102Y, W103G, Y106S, Y107P, S108N
VL: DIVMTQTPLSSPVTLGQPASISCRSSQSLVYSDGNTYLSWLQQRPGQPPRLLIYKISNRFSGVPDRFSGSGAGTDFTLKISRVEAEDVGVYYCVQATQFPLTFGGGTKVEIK
notes: Fully human IgG1 kappa; also called 50-001H1_5_3

Reference: patent US20070014720A1 (published 2007)
